Some results are limits rather than exact numbers.

The record followed here is patent US20240132578A1.

Common to all, as to test: cell-based or functional assay
The target in assay [1] is HIV-1 Env of isolate 92UG001 (HIV-1).
Assay [2] addresses HIV-1 Env of isolate 92UG005 (HIV-1).
Assay [3] addresses HIV-1 Env of isolate MGRM-AE-002 (pseudovirus) (HIV-1).
The target in assay [4] is HIV-1 Env of isolate MGRM-C-014 (subtype C), on pseudovirus (HIV-1).
Assay [5] concerns the target HIV-1 Env of isolate MGRM-D-004 (HIV-1).
Assay [6] concerns the target HIV-1 Env of pseudovirus isolate MGRM-Chronic-B-002 (clade B) (HIV-1).
Assay [7] addresses HIV-1 Env of isolate CAAN.A2 (HIV-1).
The target in assay [8] is HIV-1 Env of isolate MGRM-AE-005 (subtype AE) (HIV-1).
Assay [9] has as its target HIV-1 Env of isolate MGRM-D-008 (pseudovirus) (HIV-1).
For assay [10], the target named is HIV-1 Env of pseudovirus isolate MGRM-C-008 (clade C) (HIV-1).
Assay [11] concerns the target HIV-1 Env of pseudovirus isolate MGRM-C-014 (clade C) (HIV-1).
Assay [12] deals with aMLV envelope protein on pseudovirus (negative control).
Assay [13] addresses HIV-1 92TH021 Env (HIV-1).
The target in assay [14] is HIV-1 Env of isolate MGRM-F1-017 (pseudovirus) (HIV-1).
Assay [15] addresses HIV-1 Env of isolate MGRM-F1-018 (pseudovirus) (HIV-1).
Assay [16] deals with HIV-1 MGRM-C-026 Env (HIV-1).
The target in assay [17] is HIV-1 MGRM-C-027 Env (HIV-1).
The target in assay [18] is HIV-1 MGRM-D-018 Env (HIV-1).
Assay [19] deals with HIV-1 envelope glycoprotein (Env) of isolate 92RW008, subtype A (HIV-1).
Assay [20] addresses HIV-1 envelope glycoprotein (Env) of isolate 92UG031, subtype A (HIV-1).
Assay [21] concerns the target HIV-1 envelope glycoprotein (Env) of isolate 92WR020, subtype A (HIV-1).
Assay [22] has as its target HIV-1 envelope glycoprotein (Env) of isolate MGRM-Chronic-B-008, on pseudovirus (HIV-1).
The target in assay [23] is HIV-1 envelope glycoprotein (Env) of isolate MGRM-Chronic-B-017, on pseudovirus (HIV-1).
Assay [24] deals with HIV-1 envelope glycoprotein (Env) of isolate MGRM-Chronic-B-024, on pseudovirus (HIV-1).
Assay [25] concerns the target HIV-1 JR-CSF Env R419A (HIV-1 (isolate JR-CSF)) (UniProt P20871).
In assay [26] the target is HIV-1 JR-CSF Env S393A (HIV-1 (isolate JR-CSF)) (UniProt P20871).

4995_E20 (PGT-142) (antibody), sequence (VH): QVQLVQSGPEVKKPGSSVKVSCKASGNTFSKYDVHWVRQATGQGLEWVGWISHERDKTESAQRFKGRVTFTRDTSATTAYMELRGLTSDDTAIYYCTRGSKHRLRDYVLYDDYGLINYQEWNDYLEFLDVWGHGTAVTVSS
4995_E20 (PGT-142) (antibody), sequence (VL): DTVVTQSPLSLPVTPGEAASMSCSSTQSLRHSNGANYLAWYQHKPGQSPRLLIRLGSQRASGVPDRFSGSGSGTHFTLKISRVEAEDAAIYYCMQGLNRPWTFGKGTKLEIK
5329_C19 (PGT-136) (antibody), sequence (VH): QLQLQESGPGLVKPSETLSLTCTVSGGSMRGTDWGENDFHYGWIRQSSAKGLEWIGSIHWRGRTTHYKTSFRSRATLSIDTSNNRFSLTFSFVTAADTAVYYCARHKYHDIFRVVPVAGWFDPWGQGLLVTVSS
5329_C19 (PGT-136) (antibody), sequence (VL): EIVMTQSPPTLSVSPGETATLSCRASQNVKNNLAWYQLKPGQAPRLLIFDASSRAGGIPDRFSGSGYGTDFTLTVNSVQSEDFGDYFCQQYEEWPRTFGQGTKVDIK
4995_P16 (PGT-145) (antibody), sequence (VH): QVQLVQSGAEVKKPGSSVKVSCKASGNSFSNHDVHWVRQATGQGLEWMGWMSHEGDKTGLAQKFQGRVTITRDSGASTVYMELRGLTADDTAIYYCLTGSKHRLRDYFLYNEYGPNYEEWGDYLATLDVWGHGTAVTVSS
4995_P16 (PGT-145) (antibody), sequence (VL): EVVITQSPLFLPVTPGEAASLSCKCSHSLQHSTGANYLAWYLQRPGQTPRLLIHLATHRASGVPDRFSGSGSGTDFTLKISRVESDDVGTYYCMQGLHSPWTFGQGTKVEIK
4993_K13 (PGT-141) (antibody), sequence (VH): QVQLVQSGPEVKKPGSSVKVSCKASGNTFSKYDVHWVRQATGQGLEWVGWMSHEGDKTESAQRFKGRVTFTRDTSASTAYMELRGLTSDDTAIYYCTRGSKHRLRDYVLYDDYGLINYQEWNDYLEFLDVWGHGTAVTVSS
5345_I01 (PGT-137) (antibody), sequence (VH): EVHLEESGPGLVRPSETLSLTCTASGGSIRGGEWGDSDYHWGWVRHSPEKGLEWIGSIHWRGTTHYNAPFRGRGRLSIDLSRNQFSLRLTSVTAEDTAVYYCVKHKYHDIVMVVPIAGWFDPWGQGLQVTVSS
5345_I01 (PGT-137) (antibody), sequence (VL): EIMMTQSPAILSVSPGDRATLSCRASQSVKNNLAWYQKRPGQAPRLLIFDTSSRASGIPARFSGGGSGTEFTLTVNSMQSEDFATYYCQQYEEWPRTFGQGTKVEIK
4980_N08 (PGT-143) (antibody), sequence (VH): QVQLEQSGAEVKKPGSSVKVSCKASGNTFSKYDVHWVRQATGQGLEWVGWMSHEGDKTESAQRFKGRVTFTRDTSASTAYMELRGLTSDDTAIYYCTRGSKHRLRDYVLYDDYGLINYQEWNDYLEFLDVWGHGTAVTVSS
4980_N08 (PGT-143) (antibody), sequence (VL): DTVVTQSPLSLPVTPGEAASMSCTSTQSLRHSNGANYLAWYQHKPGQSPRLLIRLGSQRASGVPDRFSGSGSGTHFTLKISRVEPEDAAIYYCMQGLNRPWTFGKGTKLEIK
4970_K22 (PGT-144) (antibody), sequence (VH): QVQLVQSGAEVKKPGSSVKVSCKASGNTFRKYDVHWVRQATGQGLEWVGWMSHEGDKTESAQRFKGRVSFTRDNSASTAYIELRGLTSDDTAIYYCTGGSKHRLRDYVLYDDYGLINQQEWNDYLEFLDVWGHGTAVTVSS
4970_K22 (PGT-144) (antibody), sequence (VL): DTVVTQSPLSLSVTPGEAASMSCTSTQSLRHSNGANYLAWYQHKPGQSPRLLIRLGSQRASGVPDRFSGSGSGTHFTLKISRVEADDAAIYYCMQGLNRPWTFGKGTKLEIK

In the case of 4995_P16 (PGT-145) (antibody), the IC50 (µg/mL), pseudovirus neutralization in [1] is more than 50 µg/mL; in assay [2], more than 50 µg/mL; in assay [5] it was 10.9 µg/mL. Further, in [3], the IC50 (µg/mL), single-round pseudovirus neutralization stood at 1.87 µg/mL. Also, in assay [4], the IC50, single-round pseudovirus neutralization stood at 5.82 µg/mL. Moreover, the IC50, pseudovirus neutralization in assay [6] was 3.67 µg/mL.

For the substance 4993_K13 (PGT-141) (antibody), the results for the IC50 (µg/mL), pseudovirus neutralization in assay [1], in [2] and in [5] were more than 50 µg/mL, more than 5 µg/mL and more than 50 µg/mL, respectively. In addition, the IC50 (µg/mL), single-round pseudovirus neutralization in [3] is more than 50 µg/mL. In assay [4], the IC50, single-round pseudovirus neutralization is 11.8 µg/mL. Besides, in assay [6], the IC50, pseudovirus neutralization was more than 50 µg/mL.

With 5329_C19 (PGT-136) (antibody), the IC50 (µg/mL), pseudovirus neutralization in [7] and in assay [9] was more than 50 µg/mL each time. For the same substance, the IC50, pseudovirus neutralization in assay [8], in [10] and in assay [11] was more than 50 µg/mL throughout. For the same substance, the IC50 (ug/mL), pseudovirus neutralization in assay [12] was more than 10 µg/mL.

As for 4877_D15 (PGT-122) (antibody), the IC50, pseudovirus neutralization in [13] was more than 10 µg/mL; in assay [16], 0.0089 µg/mL; in assay [17] it was 0.0388 µg/mL; in [18], 0.0115 µg/mL; in assay [19] it was 0.003 µg/mL; in [20], more than 50 µg/mL. The IC50, pseudovirus neutralization turned out to be 0.009 µg/mL in assay [21], 0.017 µg/mL in [22], 5.66 µg/mL in [23] and 2.31 µg/mL in [24]. Besides, the IC50 (µg/mL), pseudovirus neutralization in [14] was more than 50 µg/mL; in assay [15], 0.563 µg/mL. The substance further gave an IC50 (ug/mL), pseudovirus neutralization in assay [12] of more than 10 µg/mL.

For 4858_P08 (PGT-123) (antibody), the IC50, pseudovirus neutralization was more than 10 µg/mL in [13]; 0.0031 µg/mL in assay [16]; 0.0169 µg/mL in assay [17]; 0.0047 µg/mL in assay [18]; 0.003 µg/mL in [19]; more than 50 µg/mL in assay [20]. The IC50, pseudovirus neutralization is 0.002 µg/mL in [21], 0.01 µg/mL in assay [22], more than 50 µg/mL in assay [23] and more than 50 µg/mL in assay [24]. In addition, the IC50 (µg/mL), pseudovirus neutralization was more than 50 µg/mL in [14] and 0.054 µg/mL in [15]. The results for the Fold IC50 increase relative to wild-type (pseudovirus neutralization) in assay [25] and in [26] were 0.7 fold and 0.6 fold, respectively. This substance showed an IC50 (ug/mL), pseudovirus neutralization in assay [12] of more than 10 µg/mL.

For 5114_A19 (PGT-128) (antibody), the IC50 (µg/mL), pseudovirus neutralization is 1.48 µg/mL in assay [7] and 0.033 µg/mL in [9]. For the same substance, the IC50, pseudovirus neutralization in assay [8] is 0.032 µg/mL; in assay [10] it was 0.373 µg/mL; in [11], more than 50 µg/mL. Also, the Fold IC50 increase relative to wild-type (pseudovirus neutralization) came out at 0.5 fold in assay [25] and 1.4 fold in assay [26].

On to 5141_B17 (PGT-126) (antibody), for which the IC50, pseudovirus neutralization in assay [13] was 0.115 µg/mL; in [16] it was 0.0076 µg/mL; in assay [17], 1.14 µg/mL; in assay [18], 0.0093 µg/mL; in [19], 0.008 µg/mL; in [20], more than 50 µg/mL. For the same substance, the IC50, pseudovirus neutralization in assay [21] was 0.006 µg/mL; in [22], 5.89 µg/mL; in assay [23], more than 50 µg/mL; in assay [24], more than 50 µg/mL. The IC50 (µg/mL), pseudovirus neutralization in assay [14] is more than 50 µg/mL; in assay [15] it was 14.9 µg/mL. Besides, the Fold IC50 increase relative to wild-type (pseudovirus neutralization) came to 1.2 fold in [25] and 0.5 fold in assay [26]. The same substance came in with an IC50 (ug/mL), pseudovirus neutralization in assay [12] of more than 10 µg/mL.

For the substance 4995_E20 (PGT-142) (antibody), the IC50 (µg/mL), pseudovirus neutralization in [1], in assay [2] and in assay [5] was more than 50 µg/mL throughout. The IC50 (µg/mL), single-round pseudovirus neutralization in [3] was more than 50 µg/mL. In addition, the IC50, single-round pseudovirus neutralization in assay [4] stood at 6.02 µg/mL. In assay [6], the IC50, pseudovirus neutralization is more than 50 µg/mL.

On to 5345_I01 (PGT-137) (antibody), for which the IC50 (µg/mL), pseudovirus neutralization in [7] and in assay [9] was more than 50 µg/mL throughout. Besides, the IC50, pseudovirus neutralization in assay [8], in assay [10] and in [11] was more than 50 µg/mL throughout.

For the substance 5123_A06 (PGT-125) (antibody), the IC50, pseudovirus neutralization was 0.0066 µg/mL in [13]; 0.0106 µg/mL in [16]; more than 10 µg/mL in assay [17]; 0.0382 µg/mL in [18]; 0.004 µg/mL in assay [19]; more than 50 µg/mL in assay [20]. For the same substance, the IC50, pseudovirus neutralization in assay [21] is 0.004 µg/mL; in assay [22], more than 50 µg/mL; in assay [23] it was more than 50 µg/mL; in assay [24] it was more than 50 µg/mL. The IC50 (µg/mL), pseudovirus neutralization in [14] and in [15] was more than 50 µg/mL each time. Further, the Fold IC50 increase relative to wild-type (pseudovirus neutralization) in [25] worked out at 1 fold; in [26], 0.5 fold. Also, in assay [12], the IC50 (ug/mL), pseudovirus neutralization is more than 10 µg/mL.

Consider 5136_H01 (PGT-131) (antibody), for which the IC50 (µg/mL), pseudovirus neutralization in [7] and in assay [9] was more than 50 µg/mL throughout. Further, the IC50, pseudovirus neutralization in assay [8] is 0.017 µg/mL; in [10] it was more than 50 µg/mL; in assay [11], more than 50 µg/mL. For the same substance, the Fold IC50 increase relative to wild-type (pseudovirus neutralization) was determined as 1.7 fold in assay [25] and 1.1 fold in assay [26].

As for 4970_K22 (PGT-144) (antibody), the IC50 (µg/mL), pseudovirus neutralization in [1], in assay [2] and in assay [5] was more than 50 µg/mL each time. The substance further registered an IC50 (µg/mL), single-round pseudovirus neutralization in [3] of more than 50 µg/mL. The substance also displayed an IC50, single-round pseudovirus neutralization in assay [4] of more than 50 µg/mL. In assay [6], this substance yielded an IC50, pseudovirus neutralization of more than 50 µg/mL.

For 5147_N06 (PGT-130) (antibody), the IC50, pseudovirus neutralization in assay [13] is 0.0082 µg/mL; in assay [8], 0.006 µg/mL; in assay [10], 7.28 µg/mL; in assay [11], more than 50 µg/mL; in assay [16], 0.0173 µg/mL; in assay [17] it was 0.0052 µg/mL. In [18], this substance yielded an IC50, pseudovirus neutralization of 0.0378 µg/mL. For the same substance, the IC50 (µg/mL), pseudovirus neutralization in assay [7] and in [9] was more than 50 µg/mL throughout. The Fold IC50 increase relative to wild-type (pseudovirus neutralization) in assay [25] was found to be 2.6 fold; in [26], 0.7 fold. This substance also came in with an IC50 (ug/mL), pseudovirus neutralization in assay [12] of more than 10 µg/mL.

Turning to 4980_N08 (PGT-143) (antibody), the IC50 (µg/mL), pseudovirus neutralization in [1], in [2] and in assay [5] was more than 50 µg/mL throughout. In addition, the IC50 (µg/mL), single-round pseudovirus neutralization in assay [3] was more than 50 µg/mL. In assay [4], this substance displayed an IC50, single-round pseudovirus neutralization of 8.81 µg/mL. The IC50, pseudovirus neutralization in assay [6] is more than 50 µg/mL.

On to 5343_B08 (PGT-135) (antibody), for which the IC50 (µg/mL), pseudovirus neutralization is 5.15 µg/mL in [7] and more than 50 µg/mL in [9]. Also, the IC50, pseudovirus neutralization in assay [8], in [10] and in assay [11] was more than 50 µg/mL each time. Moreover, the figures for the Fold IC50 increase relative to wild-type (pseudovirus neutralization) in [25] and in assay [26] were 3.9 fold and 0.9 fold, respectively. Besides, the IC50 (ug/mL), pseudovirus neutralization in assay [12] was more than 10 µg/mL.

Turning to 4838_L06 (PGT-121) (antibody), the IC50, pseudovirus neutralization in [13] is more than 10 µg/mL; in assay [19] it was 0.003 µg/mL; in assay [20], more than 50 µg/mL; in assay [21] it was 0.004 µg/mL; in assay [22] it was 0.007 µg/mL; in assay [23] it was more than 50 µg/mL. The same substance had an IC50, pseudovirus neutralization in assay [24] of 0.195 µg/mL. In addition, the IC50 (µg/mL), pseudovirus neutralization in [14] was 16.9 µg/mL; in assay [15], 0.04 µg/mL. Also, in [12], the IC50 (ug/mL), pseudovirus neutralization was more than 10 µg/mL.
